Results on one substance are retold here after patent US6946256.

The data set deals with T1, TAp63γ (UniProt Q9H3D4).
T1 sequence: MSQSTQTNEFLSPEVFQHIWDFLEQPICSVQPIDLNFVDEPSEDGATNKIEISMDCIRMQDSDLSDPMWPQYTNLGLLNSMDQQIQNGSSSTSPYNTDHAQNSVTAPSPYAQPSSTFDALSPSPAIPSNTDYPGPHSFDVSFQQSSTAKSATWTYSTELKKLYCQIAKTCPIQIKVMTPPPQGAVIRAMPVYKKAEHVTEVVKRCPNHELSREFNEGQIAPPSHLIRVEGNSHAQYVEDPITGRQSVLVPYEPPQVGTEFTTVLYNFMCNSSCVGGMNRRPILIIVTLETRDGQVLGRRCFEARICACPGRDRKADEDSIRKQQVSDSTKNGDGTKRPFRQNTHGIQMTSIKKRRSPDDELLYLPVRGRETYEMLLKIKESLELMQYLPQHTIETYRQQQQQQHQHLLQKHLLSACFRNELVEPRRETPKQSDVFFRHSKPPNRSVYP
Briefly: cell_activity. As to conditions: Saos-2 reporter, levels approaching 80% of p53.

“PG-13 β-galactosidase reporter (multiple copies of minimal p53 binding sequence)”: the activity is 80 % of p53.
